Details: Bacillus amyloliquefaciens, pH 6.3, 25 °C, Fluorescence, MES 450 mM, reversible: yes, whole UniProt chain shown

B1: Ribonuclease wild type, P00648 (protein)
chain: MMKMEGIALKKRLSWISVCLLVLVSAAGMLFSTAAKTETSSHKAHTEAQVINTFDGVADYLQTYHKLPDNYITKSEAQALGWVASKGNLADVAPGKSIGGDIFSNREGKLPGKSGRTWREADINYTSGFRNSDRILYSSDWLIYKTTDHYQTFTKIR
In the case of B1, the denaturant m value (GdnHCl) is reported as 4.4 kcal/mol/M, the “denaturant midpoint (higher = more stable)” value (GdnHCl) is reported as 2 M and the unfolding free energy (GdnHCl) is reported as 8.8 kcal/mol. For the same protein, the denaturant m value (Urea) was 1.92 kcal/mol/M, the “denaturant midpoint (higher = more stable)” value (Urea) was 4.58 M and the unfolding free energy (Urea) was 8.79 kcal/mol.

— FireProtDB (doi:10.1021/bi00067a022)
